Consider six molecules from PMC3064780 (Nucleic Acids Research, 2010).

Assay [1] addresses T1, eIF4A (Saccharomyces cerevisiae, UniProt P10081).
T1 sequence (P10081 1-395): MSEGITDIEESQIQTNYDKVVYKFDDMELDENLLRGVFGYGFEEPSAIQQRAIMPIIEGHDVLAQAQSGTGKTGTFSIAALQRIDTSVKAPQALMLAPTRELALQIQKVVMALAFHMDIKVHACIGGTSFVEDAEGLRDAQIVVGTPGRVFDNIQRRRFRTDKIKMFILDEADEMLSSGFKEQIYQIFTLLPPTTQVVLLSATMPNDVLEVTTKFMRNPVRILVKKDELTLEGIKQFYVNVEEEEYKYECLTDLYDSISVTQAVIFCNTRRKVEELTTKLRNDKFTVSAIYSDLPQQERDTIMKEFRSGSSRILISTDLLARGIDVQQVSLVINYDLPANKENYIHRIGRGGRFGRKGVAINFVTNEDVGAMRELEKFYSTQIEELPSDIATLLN
Nature of the assay: competitive titration of the mantADP/protein complex, or ITC. In kind it is binding. As to conditions: pH 7.5, 80 mM KCl, Mg2+; without eIF4G.

The target of assay [2] is T2, eIF4A/eIF4G_mid complex (Saccharomyces cerevisiae, UniProt P10081).
T2 sequence (P10081 1-395): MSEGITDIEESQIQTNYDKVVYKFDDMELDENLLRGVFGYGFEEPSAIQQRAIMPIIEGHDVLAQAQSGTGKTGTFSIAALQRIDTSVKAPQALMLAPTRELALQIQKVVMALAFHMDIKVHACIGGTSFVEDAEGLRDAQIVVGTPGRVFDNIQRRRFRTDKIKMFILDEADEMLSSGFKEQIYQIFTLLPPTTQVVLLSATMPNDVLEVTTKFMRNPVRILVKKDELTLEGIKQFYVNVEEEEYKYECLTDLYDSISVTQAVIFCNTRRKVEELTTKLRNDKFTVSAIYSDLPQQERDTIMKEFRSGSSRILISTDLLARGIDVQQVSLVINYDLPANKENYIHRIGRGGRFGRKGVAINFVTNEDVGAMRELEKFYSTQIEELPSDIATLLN
T2 sequence (P39935 572-853 K590R partner): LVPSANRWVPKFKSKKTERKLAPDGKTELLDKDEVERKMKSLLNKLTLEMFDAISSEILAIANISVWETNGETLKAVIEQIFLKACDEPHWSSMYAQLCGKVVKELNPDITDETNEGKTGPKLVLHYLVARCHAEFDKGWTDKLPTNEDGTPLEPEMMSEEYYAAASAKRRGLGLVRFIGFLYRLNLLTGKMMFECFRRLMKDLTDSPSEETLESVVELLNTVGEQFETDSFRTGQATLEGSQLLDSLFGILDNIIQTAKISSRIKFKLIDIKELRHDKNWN
The assay is described as above. Format: binding. Particulars: pH 7.5, 80 mM KCl, Mg2+; eIF4G_mid present.

The target in assay [3] is T1, eIF4A. Nature of the assay: ITC or competitive titration. In kind it is binding. Particulars: pH 7.5, 80 mM KCl, Mg2+; without eIF4G.
The target of assay [4] is T2, eIF4A/eIF4G_mid complex. Kind of assay: ITC or competitive titration. In kind it is binding. As to conditions: pH 7.5, 80 mM KCl, Mg2+; eIF4G_mid present.
Assay [5] addresses eIF4G_mid (aa 572–853 of eIF4G, middle domain) (yeast) (UniProt P39935). Kind of assay: ITC. On the technique in general: Isothermal titration calorimetry measures the heat released or taken up as one component is titrated into another.
Assay [6] addresses T3, eukaryotic translation initiation factor 4A (eIF4A) (yeast, UniProt P10081 1-395).
T3 sequence (looked up): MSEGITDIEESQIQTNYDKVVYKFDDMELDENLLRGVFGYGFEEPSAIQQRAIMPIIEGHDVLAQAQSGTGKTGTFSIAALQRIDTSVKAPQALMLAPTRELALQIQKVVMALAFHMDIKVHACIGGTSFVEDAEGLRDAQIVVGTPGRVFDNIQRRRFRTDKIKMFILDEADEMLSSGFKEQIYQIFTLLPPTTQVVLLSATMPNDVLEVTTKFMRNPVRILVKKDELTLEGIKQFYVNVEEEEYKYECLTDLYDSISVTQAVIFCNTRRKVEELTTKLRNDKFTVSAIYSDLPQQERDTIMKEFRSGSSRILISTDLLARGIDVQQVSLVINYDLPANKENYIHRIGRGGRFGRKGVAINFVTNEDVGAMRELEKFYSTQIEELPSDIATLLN
Nature of the assay: ITC.

The next assay concerns the target T4, eIF4A_E43R (yeast, UniProt P10081 1-395, E43R).
T4 sequence (looked up): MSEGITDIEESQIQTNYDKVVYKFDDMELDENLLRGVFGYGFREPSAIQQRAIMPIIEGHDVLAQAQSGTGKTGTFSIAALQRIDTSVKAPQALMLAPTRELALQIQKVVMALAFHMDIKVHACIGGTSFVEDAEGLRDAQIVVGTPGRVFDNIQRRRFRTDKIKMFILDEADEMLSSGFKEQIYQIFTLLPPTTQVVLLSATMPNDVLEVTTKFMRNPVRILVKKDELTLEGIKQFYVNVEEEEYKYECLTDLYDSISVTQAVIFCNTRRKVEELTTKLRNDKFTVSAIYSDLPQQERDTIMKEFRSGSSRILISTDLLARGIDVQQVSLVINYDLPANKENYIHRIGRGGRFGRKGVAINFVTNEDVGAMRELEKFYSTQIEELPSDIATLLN
Nature of the assay: ITC.

As usually defined, the Kd is a measure of binding affinity in units of concentration. Read a high Kd as weaker binding. As to `Nc1ncnc2c1ncn2[C@@H]1O[C@H](COP(=O)(O)OP(=O)(O)O)[C@@H](O)[C@H]1O` [ADP], the Kd entry is “the affinity of eIF4A for ADP and ATP is moderately decreased in the presence of eIF4G” at eIF4A [1]; “the affinity of eIF4A for ADP and ATP is moderately decreased in the presence of eIF4G” on eIF4A/eIF4G_mid complex [2].

For the molecule `Nc1ncnc2c1ncn2[C@@H]1O[C@H](COP(=O)(O)OP(=O)(O)OP(=O)(O)O)[C@@H](O)[C@H]1O` [ATP], the Kd result on eIF4A [3] is “the affinity of eIF4A for ADP and ATP is moderately decreased in the presence of eIF4G”; on eIF4A/eIF4G_mid complex [4], “the affinity of eIF4A for ADP and ATP is moderately decreased in the presence of eIF4G”.

Consider “eIF4A-RecA_C (aa 226-406) (domain or fragment)”, for which, in assay [5], the Kd turned out to be 1300 nM.

B1: eIF4G_K831E/S834D/R835E (domain or fragment, yeast, UniProt P39935 572-853, looked up)
chain: LVPSANRWVPKFKSKKTERKLAPDGKTELLDKDEVERKMKSLLNKLTLEMFDAISSEILAIANISVWETNGETLKAVIEQIFLKACDEPHWSSMYAQLCGKVVKELNPDITDETNEGKTGPKLVLHYLVARCHAEFDKGWTDKLPTNEDGTPLEPEMMSEEYYAAASAKRRGLGLVRFIGFLYRLNLLTGKMMFECFRRLMKDLTDSPSEETLESVVELLNTVGEQFETDSFRTGQATLEGSQLLDSLFGILDNIIQTAEISDEIKFKLIDIKELRHDKNWN
B1 yielded a Kd in assay [6] of 1100 ± 100 nM.

B2: eIF4G_R835E (domain or fragment, yeast, UniProt P39935 572-853, looked up)
chain: LVPSANRWVPKFKSKKTERKLAPDGKTELLDKDEVERKMKSLLNKLTLEMFDAISSEILAIANISVWETNGETLKAVIEQIFLKACDEPHWSSMYAQLCGKVVKELNPDITDETNEGKTGPKLVLHYLVARCHAEFDKGWTDKLPTNEDGTPLEPEMMSEEYYAAASAKRRGLGLVRFIGFLYRLNLLTGKMMFECFRRLMKDLTDSPSEETLESVVELLNTVGEQFETDSFRTGQATLEGSQLLDSLFGILDNIIQTAKISSEIKFKLIDIKELRHDKNWN
Take B2: the Kd in assay [6] was 1000 ± 100 nM.

B3: eIF4G_mid (aa 572–853 of eIF4G, middle domain) (domain or fragment, yeast, UniProt P39935 572-853, looked up)
chain: LVPSANRWVPKFKSKKTERKLAPDGKTELLDKDEVERKMKSLLNKLTLEMFDAISSEILAIANISVWETNGETLKAVIEQIFLKACDEPHWSSMYAQLCGKVVKELNPDITDETNEGKTGPKLVLHYLVARCHAEFDKGWTDKLPTNEDGTPLEPEMMSEEYYAAASAKRRGLGLVRFIGFLYRLNLLTGKMMFECFRRLMKDLTDSPSEETLESVVELLNTVGEQFETDSFRTGQATLEGSQLLDSLFGILDNIIQTAKISSRIKFKLIDIKELRHDKNWN
For the molecule B3, the Kd amounted to 600 ± 100 nM in assay [6] and 200 ± 20 nM with eIF4A_E43R.
